# Reference: patent publication US20050260207A1 (published 2005)
# B1: chimeric 2A2 antibody, expressed in Chinese hamster ovary (CHO) cells (antibody, V domains shown)
# VH: QVQLQQSGAELVRSGASIKLSCTASGFNIKDYYMHWVKQRPEQGLEWIGWIDPENGDTEYAPKFRGKATMTADTSSKTAYLQLSSLTSEDTAVYYCNARRHGYYEMDYWGQGTSVTVSS
# VL: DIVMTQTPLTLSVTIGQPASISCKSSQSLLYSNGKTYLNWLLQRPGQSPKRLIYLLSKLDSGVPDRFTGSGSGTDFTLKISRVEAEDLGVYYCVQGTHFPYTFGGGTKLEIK
# notes: A secretion leader was used for expression and is not part of the mature protein; also called chimeric antibody 2A2; 2A2 chimeric antibody; not shown: human IgG1 heavy chain constant region (human Cgamma1 region from pUC/hIgG1); human kappa light chain constant region (human Ckappa gene from pUC/hCK)
# Target: recombinant human cathepsin B (human, UniProt P07858 80-333)
# Experiment: Western blot of recombinant human cathepsin B, goat anti-human IgG-HRP as secondary antibody
# Description: A: polyacrylamide gel electrophoresis of recombinant human cathepsin B (1) and of standards (2); B: Western blot—cathepsin B (1) stained with chimeric 2A2 antibody. Goat anti-human antibody (IgG) conjugated with horseradish peroxidase was used as a secondary antibody. As the substrate 0.05% diaminobenzidine (DAB) and 0.01% of H₂O₂ in 0.05M Tris/HCl buffer, pH 7.5 were used.
binder,measurement,value
B1,binding result,binds
